# In patent US20060104978A1, “Methods and compositions for PDGF-C activation and inhibition” (LUDWIG INSTITUTE FOR CANCER RESEARCH, priority 2003, published 2006):
# Key:
# latent PDGF-DD = latent PDGF-DD (Homo sapiens, UniProt Q9GZP0); test: In vitro cleavage of recombinant latent PDGF-DD with purified tPA; type: biochemical; design: Recombinant His6-tagged human PDGF-CC species and full-length PDGF-DD were expressed; made in house; conditions: 0.2-20 μg/ml tPA, 4 hours at 37° C., CNBr activated fibrinogen
# From the text: (§1) A cotransfection assay was established to identify serine proteases able to cleave and activate latent PDGF-CC. Expression plasmids encoding the relevant enzymes and full-length PDGF-C were cotransfected into COS-1 cells, and aliquots of the conditioned media from the transfectants were subjected to SDS-PAGE and immunoblotting using antibodies to the growth factor domain of PDGF-C. […] As a specificity control, the ability of tPA and NT to use full-length PDGF-DD as the substrate in the cotransfection assay was analysed. […] One difference in the latter results, as compared with the results from the cotransfection assay, was that purified tPA generated a second intermediate species of 32 kDa using latent PDGF-CC as the substrate. It is possible that this intermediate is the result of digestion by plasmin contamination in the tPA preparation, since the size of the fragment is similar to that of plasmincleaved PDGF-CC previously reported (Li et al, 2000).
# Recombinant latent PDGF-CC and PDGF-DD were digested with human tPA in 100 mM Tris-HCl pH 7.5, 0.1% Tween 20, and 0.1 mg/ml CNBr activated fibrinogen (Sigma) for 4 hours at 37° C. using 0.2-20 μg/ml tPA purified from human melanoma cells (T7776, Sigma). The digestions were analyzed by SDS-PAGE under reducing conditions and immunoblotted using affinity-purified antibodies against PDGF-C and PDGF-D, respectively (see above).
# PDGFR-α = target: T1, PDGFR-α (Homo sapiens, UniProt P16234); test: PDGFR-α tyrosine phosphorylation in PAE cells stably expressing PDGFR-α; type: cell-based; conditions: conditioned medium from transfected COS-1 cells applied to PAE cells, 120 min on ice
# T1 construct: expressed in transfected cells
# Experimental: It was verified that the growth factor domain in PDGF-CC released by tPA-mediated proteolysis is an efficient PDGFR-A ligand. Conditioned media from transfected COS-1 cells were applied onto porcine aortic endothelial (PAE) cells with stable expression of PDGFR-α (FIG. 5A).
# To understand the structural requirements for receptor-binding and activation of PDGF-CC, the series of truncated mutants of PDGF-CC generated above were analysed for their ability to activate PDGFR-α in PAE cells. Conditioned media containing the truncated mutants of PDGF-CC were applied onto PAE cells, and the activation of the receptors was monitored by induction of receptor tyrosine phosphorylation (FIG. 6D).
# To monitor growth factor-induced tyrosine phosphorylation of PDGFR-α, serum-starved PAE cells stably expressing human PDGFR-α were incubated for 120 min on ice with conditioned medium from COS-1 cells transfected with full-length PDGF-C in the absence or presence of tPA. Alternatively, primary wild-type and tPA-deficient fibroblasts were stimulated with 100 ng/ml activated PDGF-CC protein. The cells were lysed as described previously (Li et al, 2000) and PDGFR-α was immunoprecipitated using a specific antiserum (Eriksson et al, 1992). […] Tyrosinephosphorylated receptors were detected by immunoblotting using an antiphosphotyrosine antibody (PY99, Santa Cruz). […]
# latent PDGF-CC = latent PDGF-CC (Homo sapiens, UniProt Q9NRA1); test: Cotransfection assay in COS-1 cells: protease plus full-length PDGF-C; type: cell-based; design: cotransfected with full-length PDGF-C (Li et al, 2000), full-length PDGF-D (Bergsten et al, 2001); expressed in transfected cells; host or cells: COS-1 cells; conditions: COS-1 conditioned medium, immunoblot, 22 kDa species under reducing conditions
# From the text: as §1, with “2000). […]” for “2000).”
# To test the endogenous expression of PDGF-CC, subconfluent AG1523 cells and primary fibroblast cultures were cultured in serum-free DMEM overnight. […] In the case of the primary cultures, total protein concentration was measured and normalized (Bradford, 1976). […]
# T1 sequence (P16234 24-1089): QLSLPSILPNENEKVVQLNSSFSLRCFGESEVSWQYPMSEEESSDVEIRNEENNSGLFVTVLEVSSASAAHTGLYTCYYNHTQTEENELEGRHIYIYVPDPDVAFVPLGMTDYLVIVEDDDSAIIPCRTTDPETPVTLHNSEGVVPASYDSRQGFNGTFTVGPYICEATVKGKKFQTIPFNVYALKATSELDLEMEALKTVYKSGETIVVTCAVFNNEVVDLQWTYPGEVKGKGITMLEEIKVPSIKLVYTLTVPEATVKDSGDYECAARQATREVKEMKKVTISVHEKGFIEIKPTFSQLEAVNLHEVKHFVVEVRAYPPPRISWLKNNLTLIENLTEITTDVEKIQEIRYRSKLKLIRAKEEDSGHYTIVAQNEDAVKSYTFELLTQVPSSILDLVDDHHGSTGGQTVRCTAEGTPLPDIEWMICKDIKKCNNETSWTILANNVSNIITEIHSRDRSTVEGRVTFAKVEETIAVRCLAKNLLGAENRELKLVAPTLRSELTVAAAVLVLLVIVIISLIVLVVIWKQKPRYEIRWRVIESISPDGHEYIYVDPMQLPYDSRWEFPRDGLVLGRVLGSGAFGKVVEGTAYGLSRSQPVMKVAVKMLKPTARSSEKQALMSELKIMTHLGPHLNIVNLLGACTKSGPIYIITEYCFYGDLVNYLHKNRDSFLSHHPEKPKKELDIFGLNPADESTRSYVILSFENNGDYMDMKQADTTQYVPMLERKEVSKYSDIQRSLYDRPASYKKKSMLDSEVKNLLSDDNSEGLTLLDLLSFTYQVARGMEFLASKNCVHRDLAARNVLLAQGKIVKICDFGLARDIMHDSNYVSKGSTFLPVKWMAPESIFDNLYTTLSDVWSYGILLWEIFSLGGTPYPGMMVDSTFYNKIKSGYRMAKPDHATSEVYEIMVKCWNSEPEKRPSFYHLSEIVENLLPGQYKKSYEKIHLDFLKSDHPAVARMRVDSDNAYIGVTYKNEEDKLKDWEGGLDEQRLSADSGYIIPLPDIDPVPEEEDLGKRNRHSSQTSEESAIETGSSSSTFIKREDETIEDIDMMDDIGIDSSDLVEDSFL
# Chain of latent PDGF-CC (Q9NRA1 23-345): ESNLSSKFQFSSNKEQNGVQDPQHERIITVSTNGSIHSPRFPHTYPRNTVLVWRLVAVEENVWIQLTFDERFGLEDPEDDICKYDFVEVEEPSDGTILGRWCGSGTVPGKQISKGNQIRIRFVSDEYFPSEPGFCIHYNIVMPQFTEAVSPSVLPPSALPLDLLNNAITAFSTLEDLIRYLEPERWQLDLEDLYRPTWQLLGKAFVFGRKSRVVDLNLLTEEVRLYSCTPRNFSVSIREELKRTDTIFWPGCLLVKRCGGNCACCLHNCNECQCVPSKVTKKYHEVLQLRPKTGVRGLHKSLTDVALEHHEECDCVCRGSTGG
substance,measurement,setting,value
"tPA: tissue plasminogen activator, secreted serine protease; expressed, purified from human melanoma cells or recombinant",cleavage of recombinant latent PDGF-DD by purified tPA,latent PDGF-DD,"but not PDGF-DD, is a substrate for tPA"
same,PDGFR-α activation (receptor tyrosine phosphorylation),PDGFR-α,failed to induce receptor activation
same,cleavage of latent PDGF-CC by the coexpressed protease,latent PDGF-CC,released the growth factor domain of latent PDGFCC
